Biological target: His-Rac2 (hexahistidine-tagged Rac2^G12V, aa 2-177) (human) (UniProt P15153)
Experiment: SPR

## PLCβ2 (PH-C2) (domain or fragment)
  Kd: 6 µM
  kon: 385 M⁻¹ s⁻¹

— publication PMC2573054
